From the DeepSol protein solubility set

Assay: soluble on expression in E. coli; label from the status in PepcDB or PDB records

Soluble on expression in E. coli, not soluble:
MGSDKIHHHHHHMNSNQLAFTIPISREMINIANKLSQQQRNEQKTREVYLNTLALLAVEFFCQCMEIETEFSKSYGLDSVVLSLMNTASIFIKDKGLLECRPVLPREDFCEIPAEILSERIGYMVVEIDELDRQAKIVGFVESVSNEKLALSKLGSLQDFLIYLQKLQKIENYDPSNPDISEIARNQLNESIVKLSKWFKGLLDSGWEYELAIAKDIPNVLAVPKDISPVNVTDKEEVGGARIIHLMHLSEPVLLILRQTRLSPDEIEIILRLYPASESIFLLDGIKMTLLDEKDNPIRQLEKQAKASNWLQLRFKGNVGDKFSLKISFRGDSVITKFII, MGSDKIHHHHHHMNTPLYKALIQHARRNSHSFHVPGHHNGDVFFDDAKSIFDPLLTIDVTELAGLDDLHHPSGVIKEAQELASQLYGSAESFFLVNGTTVGNLAMILSVCEPGDTILVQRNCHKSVFHAVDLSGAEPVYLAPDVDSAMHVPTHVPLGTIKEALEAYPDAKGLVLTNPTYYGHSADLTEIITEAHHYGIPVLVDEAHGAHFILGEPFPVSALKMGADIVVQSAHKTLPAMTMGSYLHLNSSCRINRDRVAEYLNRLQSSSPSYPIMASLDIARAYVQHIIEEQKLSDILQRIETLKQTFDSLTNAEAVNPANPLIITDPLKLTIRSKRGHSGYTLQSILERANIFTELADENQVLLVLPLGGKRRINAEIIRSIDEEIEKTPPDQTFVSAEWGVQPVTVLPYPKKVLHSFKKEYVSFEEAAGRLNAEDIIPYPPGIPMIMAGERITKESVQKLSRLISMKTHVQGNMKIKEKQLLVYIEEEKS, MGSDKIHHHHHHMNTSISASWGRYINAIPPRSGEAALAPLSSFVDGQCIYSFGERADQVYQVEFGAVRVYRLAANGRRQILAFHFGGNWFGLQSRDRHSSNAEAIGVTGVRCISLQEEPLFRPALFSAALDNVSAAQEHQLVIGRQSAIERVAAFLLEMSERSGYSRRFELSMSRVDVADYLALTVETVSRSLTKLKHRGFIELHGARGIELVGYRALQNLCL, MGSDKIHHHHHHMNTTASPSRLLGVGLYTASQASSYTGIPAKDIRRWMFGYSASGVEHPGLWAPEIAFLDDKLLGFHDLLEIRFVHAFRQHGVSLQAIRSASLQAREMFGQRYPFTCRRFQTDGRDIFATVLDETGDEALLDLVKRQYAFKQVITPSLYEGIDYAGEESAKRWYPVKRSKAVVLDPARNFGKPVLTITGIDTAAIYHSYLAEGQSAKRVALLYEIPPAAVEAAVNFEHRIAA, MGSDKIHHHHHHMNVLNDSVDDTVQKKVAFFLPTLNIGGIERVFITYANYLIDKKYNIYFILCKRRGELLSLLDSNIKLYHLGNVQLKFSFLKLRQSLKEIQPDVIVSGGDFPNLILIVSSLGLKKVPKIIISQHNYYNVETRRLGWWAYGTCFFMKKIYPKADKIIAVSDGIREFLIKKIHISADRIIKLPNPIDIKGIKEKSLELLDITLPDRYILFVGRLSYVKNLFFLLDAFEMGKLDNNSLVIVGDGEMRNALMKKAKKMHKADNIIFLGAMENPLPILKKAQLLVLPSFSEAYPTILLEALCLYIPVVSTPTKGAKEILHNVSGTYISTDCYNIEEFARLMERGVKERISHKVIDDKIGLNSIENIGLRIQREIIEDNRL, MGSDKIHHHHHHMNWLNLRAIVPSDKQNMPNKKNKAAFARTVTKNGAPDVSDIKNSYDDLMYESGAFSQTAINNLEARARLMGLQPAPAANAKVLELGCSMGGNIITQALYYPDAEFTGIDLSGRQVAQGNAIIEKMGLKNVRLEEKDILTVDESFGKFDYIIVHGIWSWVPDAVKDKIFSICRNNLTEHGIAYISYNVYPGWKRQEQLREIMQFSGRDVLEEPLEARTRKGLDALKALAEILENDKGLGGGGKLPAIQKILNHNFYYIAHEYMEAFNDPIYVNGFIEWANRHRLAYIGDTDLHVSFVSWMAEHTRERILALAGGDYIAKEFYSDILSDRQFRRSLLCREEVGDTVRRDESVAVEVIESLNFRPARGETINFDENDTLLSGIRDVMKTGEPFKTEDVAENLARRFPGLTFDRMKINSQLLLQTILGRFSVSSDNAGKPFFEDHKTYVPARFTDYVAAFVEHGAEAFVRPANRYNESTPSFGYGHLYIMRQLSRPTSKQAVIDAVAENLNIVSTTPDGLTFHPPAEVYVEEILADLADRHFLVSAD, MGSDKIHHHHHHMNYPQEKIKPYSNDGKKSEQVEQMFDNIAPAYDQLNHTLSLGIDRSWRRKAINWLKPFRPQQIMDVATGTGDFAILACHELQPEQLIGTDISEGMMNVGREKVKKEGLSEKISFAREDCTSLSFADNRFDAITVAFGIRNFEDLDKGLSEMYRVLKTGGHLVILELTTPDRFPMKQMFTIYSKIVIPTLGKLLSKDNSAYSYLPQTIKAFPQGEVMKNVISRVGFSQVQFRRLTFGICTLYTATK, MGSDKIHHHHHHMPAIAFIDISGSPFQAGQALGRFGASAVRDHLLHTDAWRSVMRWRGTEQAALMAAQVQARFPRIWDELKGLADGLGLPLEDTFLWNCRGDVWAMSPDGCTTVQVPGAHRRRISHNEDGDPGFSGHCAIAQCHIAGSPGFASFVYPGSLPGHTFAATELGLAMTVNNLRYRNTTAGVPRMVLTRAVLDAPDLDKALAVLRDNPHAGGFHLTLGHCRSTALLSVEFSAYGCSVLDITQTSMHANHAIHPQMRDHPQIVTGSSGHRQMRGDTVIADAARDGREIDPLELLADTAHPSFPIYRDDPHDSDGENTQATADMRVGPTCIEWEVYEQPGTAPRYRMINGHTREEDATDAGARPDVQSRH, MGSDKIHHHHHHMPFDDIQCSPLLVRDGTDNIMQVLSDTDKPTASAQRDMPQEFLPPRCTFSAEDWRILARQWYPVARSVDVKSSPVAVTLLDLELVTYRTPAGVHVARDLCPHRGVPLSMGCVEGDELVCAYHGLRYAADGQCRKIPAQPELKPSAKFRLTVFPAVERYGLVWTCLNPQGGEANLPPMPSWGDPLCQSILPPFVDIAGSAGRQVEGFVDVAHFAFVHHDAFADRNRPEVPMYQTEFTDFGLRTEYWSNVSNYPKALQHLAPDDFSWLRVYEIYPPFCARLTVHFPNEGRLNILNAASPVSARKTRLFVPITRNFDTTGSLDDVYAFNAQIFAEDQAIVERQRPEDLPLDMQAEAHFAADRTSVGYRRLLREMGLTMAYAG, MGSDKIHHHHHHMPFKAKDQQGNIVLATDFKSVLEIRKNFPKGSLFCPFCQTLMFPRKRQNTSLHFVHTHPCTTVMEHHPESPEHLQGKLEISKYFQEVYKGMIDAQEAFIEIEHPISEAGKNGRIADVAVVFSTGYRIIGECQLAKIEAADIYQRTQDYYSISADVLWFLGGAADTPENRQAAVDLDVFAGTINFTYST, MGSDKIHHHHHHMPFLLFKFPGKRVLGFSFEGRPHRHATGLSRFLDVHGAAYACELGRLSSELVGASEGALLKRLESLYDEILIDEVQDLSAHDWEIVDALLHSSIHIRMVGDIRQSVLATNPRSTKNKQYAYAETVKWFREREQLGRLAIRESVETWRCHPKIAAFSDTIFDASWAFPSTVSRNDAMTDHDGVFLLTKKHVRDYVERFAPQCLRSMAGSGKEFNLDFMNFKVAKGSTFERVLIMPTAGITDFVRKGSSLEPVPAASFYVAVTRAAQSVAMVIDNAGASTLPYWTP, MGSDKIHHHHHHMPFRRPCAINRPPLTSGCQGHPLSSRRAAQGPGGFFYRHKDMAMTQKRALGLDFGTTNTVMALSDTGSASHSMRFTSSAGTDDSMRTALSFMKDAGLGAAALHVEAGQAAIRQFIDNAGDCRFLQSIKTFAASPLFQGTLIFAKRQSFEDLMEVFLRKLKTYAGSEWPGDVSTVIAGRPVRFAGSNPDETLALARYNEALTRAGFPEIHYVYEPVAAAYYFAQSLKKDANVLVADFGGGTTDYSLIRFETHAGKLSATPIGHSGVGVAGDHFDFRMIDNLVSPEIGKGSKFKSFDKVLDVPSGYYVNFGRWNQLSIFKTSKEFTDLKSLVRSALEPDKLELFIDLVEHDEGYPLYQAISATKMALSSAQEAEFNFSPLGKAGRKMVKRSDFNNWIADDLAKIEGALDEVLEKTKVAPEAIDKVFLTGGTSFVPAVRELFTRRFDADRIESGGELLSIAHGLAMIGESGDIQRWTA, MGSDKIHHHHHHMPKLIIDADDFGLSKAINHGIIESYKTGITTSTLLMPNLETAEHAIALAKNHPDLFIGQHTNFLLGKPCANPAEIPSLVDENGEFHRSKYYRANPELKFQYEDVRTETIAQMERFKALTGHYPEHIDCHSIGDETVDQAFFDIAREFGIHTTLKYSGDKKWSDQEGYLPITKLLESGALPYTNGGVSVENFLNDDFGLLKLAPNEIAEMHFDVGFLDQFVLDNSSYTLMRCRELATICDVRVRDWLLENGFELITFGDLQR, MGSDKIHHHHHHMPKNLYNYQEFIRLSHEGKIAFEQIDVPKNASLLTEKIDIDNHIYLVVDGYIALILNDGSQNPKIYSIQGKGTFLNYFTLLDRSNNHFNFKTLSGCSLYKYSKADMEYFLSMFPENFGFQFFIMKNQTTHIYFKSLMASSPASEKLKTTFSNMALLHGVLSDDDTVILPQAIKTSHLLSYSNLSKSCFYKDLQHLKTTNQIEKKEKSWIIHDQELYAMIQNGQTSF, MGSDKIHHHHHHMPKRFEWLFYAFIAFALYSCNGSSRGKGTEVETVSIDTADFNFPVRFEYAKGIQTVNHTGYKTVYIFHPDKPDTMAVYILYPRDSKRPVARHPKALYIPVPARTIACLSTTQIGSLPLLDQTDKLVGCINLKNICNADIRNRIKKGYVQEIGTGMTKNIEQIAGLRPEILLQDLFHVSDKDEELIASGINTVLYNEWKERDLLGRAEWMKLTAMLLSCNRRAHEVFEQIESEYAEARKLVAEKTDTIAIMYGQDYNGTWYLPGEYSYSTAMFRDARVSFDYAAGKVSSQPCSFEYIFSRHRHAEIWICTMMGNIKTMDEFLALNERYRHFDATQTGKVYIDRKRVNENGGNDYWESGLYRPDLLLKDIIKITRPELLPEYETSYWIELKRP, MGSDKIHHHHHHMPLLDVRNLTIELDTPHGRVRALEKVSLTLNAGEIHGLVGESGSGRSLLARAILGIPGPNWTITADRMMWDGNNLMAMSSKERRNLMGSDMAMIFQDPSGSLDPAQTVGSQLMQAMPKNPNAYFWQKRRHARLTAQKWLHKVGIKNPRQVMSSYAWELSEGECQKVMIAMAVANQPRLLIADEPTSSMELSTQAQIFRLLSQLNQLQNVSILLISHELETLAQWCDHLSVLYCGQVMESGPTDEVIKQPYHPYTKALLDNMPDYSGSGGHKAIMPTLPGSAPALQHLPIGCRLGPRCPEAQKKCVNQPNLSHIKDRYFACHFPYHGETHNDDPTA, MGSDKIHHHHHHMPQITIIVPVYNAERTLERCVRSIQAQTVVNWELLLIDDGSEDYSSKLCDEYAIQDSRIRVFHQVNGGASSARNVGLEYTKGEWVVFCDSDDWVDSNWLELFKNQIDNGTELIVQGFIPHGNLWQSRTGINFHGNVKTGILKLQEENILGFMCTKMYKREIIEQCGLRFDTELVLREDELFMLQYAEYISTIQCMEEGAYHYDMPDFSTKYGNIDLFNMFLKIYVVLKRIFSGEDNLLLQNYENDLTQSLFHSFVMRHDDRCKKLENYRKEVGKRVLGVKSLSQFSKYILAYVPSFQVAYLLLEAKAKIVKSMQ, MGSDKIHHHHHHMPQLRDSGNHSTAPLDAHTKDEIQSFARIFGIETEYGVSVTGSDRPCDAGQTAMMMFQPIVAEARSTNTYIENGSRLYLDVGSHPEYATAEARDPMDALALDAAGELVMRDLALDAQRRLRSIQGAGSTVHVFKNNVDSAGHSFGCHENYLVRRFVPLKTIEQELLPFLITRQLFTGAGRMGEQGFQITQRADFLDEAVSSATTRSRPMVNTRDEPHADPDAFRRLHVIIGDSNRSQWATMMKLATTHLVLCVIEQAGREGKDSGFARFSFADASAANHKVSRDLTGVEASFDMADGTVMEGGAVAIQERYLEIVERFVGQHPEVCSSLPRTDVHEVIRRWRRVIEAFRSGVSETFADKVDWLAKRRLFDMLRNRAGGRLSVSKLEQLDMDYHDVANGALYASLCRRGAMRTLVNESQAHEAIDVPPHDTRAALRGRFIQSARSHNAQYSCDWTRLSLTSPNRMDVTLLDPFDAQPSDRFLTILEALQ
